Source: CN114539393A (BEIJING NEUABO XINESCAPE BIOTECHNOLOGY CO LTD, dated 2022)

B1: N2-8单域抗体 (VHH)
VHH: QVQLVESGGGSVQAGGSLRLSCAASGRTFSIYAMGWFRQAPGKEREFVAAISKSGEGTYYADSVKGRFTISRDNAKNTVALQMNSLKSEDTAVYYCAASRVVVSGLSPSDYAYWGQGTQVTVSS
notes: also called 单域抗体N2-8; N2-8-pSJF2; not shown: c-myc and His6 tags from the pSJF2 vector
B2: N2-10单域抗体 (VHH)
VHH: QVQLVESGGGLVQTGGSLGVSCAASGRTFSIYAMGWFRQAPGKEREFVAAISKSGDGKYYADSVKGRFTISRDNAKNTVALQMNSLKFEDTAVYYCVASRTVVSGASPDEYDLWGQGTQVTVSS
notes: also called 单域抗体N2-10; N2-10-PSJF; not shown: c-myc and His6 tags from the pSJF2 vector

Biological target: T1, SARS-CoV2的N蛋白 (SARS-CoV2, UniProt P0DTC9 1-419)
T1 construct: also called 新冠状病毒N蛋白; 2019-新型冠病毒N蛋白
Test: ELISA, N protein coated at 2 ug/ml, VHH at 10.0 and 1.0 ug/ml, anti-Myc-HRP detection, OD450

Row | Binder | binding result
1 | B1 | binds
2 | B2 | binds
